# Measured values taken from the nanobody polyreactivity screen of Harvey et al. (2022).
# Test: yeast display, Sf9 membrane polyspecificity reagent, FACS + sequencing; frameworks hold sequencing errors
# Outline: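 Genes from sorted yeast were amplified by colony PCR, read by MiSeq 2 × 250 sequencing and filtered on CDR length. These cells carried a synthetic nanobody library in Saccharomyces cerevisiae BJ5465 and were sorted by FACS into low and high (top ~1%) gates on anti-HA and streptavidin fluorescence. Polyreactivity is labelled according to the gate of origin.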
row,Sequence,polyreactivity (PSR sort gate)
1,QVQLEESGGGLVQAGGSLRLSCAGSGRNFGVNTMRWYRQATGKERDLVAAISFSGVSTYYADSVKGRFTISRDNAKNTVYLQMNSLKPEDTPVYYCAAVPYRQYPCGGYWGQGTQVTVSS,low polyreactivity
2,QVQLVESGGGLVQAGGSLRLSCAASGSTFWSYAMGWYRQAPGKERELVAVITWSGGSTNYADSVKGRFTISRDNAKNTVYLQMNSLKPEDTAVYYCNAPYYFWSYIYDYLGQGTQVTVSS,low polyreactivity
3,QVQLVESGGGLVQAGGSLRLSCAASGRTFLYNAMGWYIQAPGKERELVAAISWNGGRTYYADSVKGRFTISRDNAKNTVYLQMNSLKPEDTAVYYCAKVDQLYNSRYDYWGQGTQVTVSS,high polyreactivity
4,QVHLVESGGGLVQAGGSLRLSCAASGLILPYYAMGWYRQARGKERELVAAISRTGGRTSYADSVKGRFTISRDNAKNTVYLQMNSLKPEDTAVYYCAAVGQSGGRRYDYWGQGTQVTVSS,high polyreactivity
5,QVQLVESGGGLVQAGGSLRLSCAASGRIFIEYAMGWYRQAPGKERELVATINSSGGRTYYADSVKGRFTISRDNAKNTVYLQMNSLKPEDTAVYYCAARGSYRGPYNVEYDSWGQGTQVTVSS,low polyreactivity
6,QVQLVESGGGLVQAGGSLRLSCAASGITFYLNAMGWYRQAPGKDRELVADITVSGGSTYYADSVKGRFTISRDNAKNTVYLQMNSLKPEDTAVYYCAADLTISYSQEYYYWGQGTQVTVSS,low polyreactivity
7,QVQLVESGGGLVQAGGSLRLRCAASGSIFRRYAMGRYRQAPGKERELVATITSTDSTNYADSVKGRFTISRDNAKNTVYLQMNSLKPEDTAVYYCAKRPYDYRLNSEYYYWGQGTQVTVSS,low polyreactivity
8,QVQLVESGGGLVQAGGSLRLSCAASGSTLRRYAMGWYRQAPGKERELVAINSSGGITYYADSVKGRVTISRDNAKNTVYLQMNSLKPEDTAVYYCNARRPAPGYGYDYWGQGTQVTVSS,low polyreactivity
9,QVQLVESGGGLVQAGGSLRLSCAASGRIFQGYAMGWYRQAPGKERELVARITSGSNTNYADSVKGRFTISRDNAKNTVYLQMNSLKPEDTAVYYCAKEPVGSVRYGRFQQDDYWGQGTQVTVSS,low polyreactivity
10,QVQLVESGGGLVQAGGSLRLSCAASGSILYYYAMGWYRQAPGKERELVAAISSGGSTYYADSVKGRFTISRDNAKNTVYLQMNSLKPEDTAVYYCAARRDNPWAKAPRYKMYYWGQGTQVTVSS,high polyreactivity
11,QVQLVESGGGLVQAGGSLRLSCAASGSTYWINAMGWYRQAPGKEREFVAAIRWNGGSTNYADSVKGRFTISRDNAKNTVYLQMNSLKPEDTAVYYCAADGYIGWRHIYEYWGQGTQVTVSS,low polyreactivity
12,QVQLVESGGGLVQAGGSLRLSCAASGSTFGGYAMGRYRQAPGKERELVAAISQSGTRTYYADSVKGRFTISRDNAKYTVYLQMNSLKPEDTAVYYCAARRLYYHPTLYYWGQGTQVTVSS,high polyreactivity
13,QVQLVESGGGLVQAGGSLRLSCAACGSIFKGNAMGWYRQAPGKERELVARISSGGSTYYADSVKGRFTISRDNAKNTVYLQMNSLKPEDTAVYYCAARVYTSYIRQYTYSYYYWGQGTQVTVSS,high polyreactivity
14,QVQLVESGGGLVQAGGSLRLSCAASGSIFYTNAMGWYRQAPGKERELVAAYADSVKGRFTISRDNAKNTVYLQMNSLKPEDTAVYYCNAVLPIYRYLYEGDYWGQGTQVTVSS,low polyreactivity
15,QVQLVESGGGLVQAGGSLRLSSAASGSIFQDNAMGWNRQAPGKERELVAAISVSGGSTYYADSVKGRFTISRDNAKNTVYLQMNSLKPEDTAVYYCAARARGYAWTYDYWGQGTQVTVSS,high polyreactivity
16,QDQLVESGGGLVQAGGSLRLSCAASGFNFYKYAMGWYRQAPGKERELVAAITGRGGSTYYADSVKGRFTISRDNAKNTVYLRMNSLNPEDTAVYYCAASQRSGHPSYDYWGQGTQVTVSS,high polyreactivity
17,QVQLVESGGGLVKAGGSLRLTCAASGRIFVNYAMGWYRQAPGKEMELVAAINWSGGRTYYADSVKGRFTISRDNAKNTVYLQMNSLKPEDTAVYYCAAEWEGTYTTVPDEFNYWGQGTQVTVSS,high polyreactivity
18,QVQLVESGGGLVQAGGSLRLSCAASGSTFVVNAMGWYRPAQGKERELVAAISRSGTSTYYADSVKGRFTISRDNAKKTVYLQMNSLKPEDSAVYYCNAVGSYYPPDYWGQGTQVTVSS,high polyreactivity
19,QVQLVESGGGLVQAGGSLRLSCAASGSIFWGYEMGSYRQAPGKERELVAAINRGGSTYYADSVKGRFTRSRDNAKNTVYLQMNSLKPEDTAVYYCAAGYPSWYYGYPYDSWGQGTQVTVSS,low polyreactivity
20,QVQLVESGGGLVQAGGSLRLSCAASGNTFGQYTMGWYRQAPGKERELVAAISWDDSSTNYADSVKGRFTISRDNAKNTVYLQMNSLIPEDTAVYYCAKETELGTQYPYEYDYWGQGTQVTVSS,low polyreactivity
21,QVQLVESGGGLVQAGGSLRLSCAASGSIFPVYAMGWYRQAPGKDRELDATITDGGGDTYYADSVMGRFTISRDNAKNTVYLQMNSLKPEDTAVLYCAARSIPEWSAYWYDYWGQGTQVTVSS,low polyreactivity
22,QVQLVESGGGLVQAGGSLRLSCAASGSIFITYAMGWYRQAPGKDRELVATITSRSGGTYYADSVKGRFTISRDNAKNTVYLQMNSLKQEDTAVYYCNAVYTYPVFHGMGYWGQGTQVTVSS,high polyreactivity

row,Sequence,polyreactivity (PSR sort gate)
1,QVQLVESGGRIVQAGRSLRLTCAASGRTFRNYAMGWYRQAPGKEREFVAAITSRSSRTYYADSVKGRFTISRDNEKNTVYLQMNSLIPEDTAVYYCARGSELGYYAWVYYWGQGTQVTVSS,high polyreactivity
2,QVQLVESGGGLVQAGGSLRLSCAASGRTFYGYAMGWYRQAPGKERELVASISRDGYTNYADSVKGRFTISRDNANNTVYLQMTSLKPEDTAVYYCAADFWYYRYPIYYYSYDYWGQGTQVTVSS,low polyreactivity
3,QVQLVESGGGLVQAGGSLRLSCAASGGTFSKNAMGWYRQAPGKERELVADIRSGGSTYYADSVKGRFTISRDNAKNTVYLQMNSLKPEDTAVYYCNADGDVNEYDYWGQGTQVTVSS,low polyreactivity
4,QVQLVESGGGLVQAGGSLRLSCAASGFISRTNAMGWSRQEPGKERELVAGINSGGNTYYADSVKGRFTISRDNAKNTVYLQMNSLKPEDTADYYCAALWSLRRSRPRFDYWGQGTQVTVSS,high polyreactivity
5,QVQLVESGGGLDQAGGSLRLSCAASGRTFARYDMGWYRQATGKERELVAGINGDGGSTNYADSVKGRFTISRDNSKNTVYLQMNSLKPEDTAVYYCNVDQEDRKLHVSIKQLSDHWGQGTQVTVSS,low polyreactivity
6,QVQLVESGGGLVQAGGSLRLSCAASGRIFQTYAMGWYRQAPGKERELVAAISSRGRTYYADSVKGRFTISRDNAKNTVYLQMNSLKPEDTAVYYCAARDWSHRPRGYDYWGQGTQVTVSS,high polyreactivity
7,QVQLVESGGGLVQAGGSLRLSCAASVSTFSVYAMGWYRQAPGKERELVADISENGGSTYYADSVKGLFTISRDNAKNTVYLQMNSLKPEHTAVYYCAALYHSTSHTYSYWGQGTQVTVSS,low polyreactivity
8,QVQLVESGRGLVQAGGSLRLSCAASGRTFYGYARGCYRQAPGKERELVARISSGGGTYYADSVKGRFIISRDNAKYTVYLQMNSLKPEDTAVYYCNAEVYRWSGSYTGWDSWHDDWGQGTQVTVSS,low polyreactivity
9,QVQLVESWGGLVQAGASLRLSCAASGRILPYYAMGWYRQAPGKERELVATISSGGRTNYADSVKGRFTISRDNAKITVYLQMNSLKPEDTEVYFCNKYGFKGGVGYDYWGQGTQVTVSS,high polyreactivity
10,QVQLVESGGGLVQAGGSLRLSCAASGIIFFYNAMGWYRQAPGKERELVAAITIGGITYADSVKGRFTISRDNAKNTVYLQMNSLNPEDTAVYYCNKRTDSDSGHWEHDYWGQGTQVTVSS,low polyreactivity
11,QVQLVESGGGLVQAGGSLRLSCAASGFTFRNYAMGWYIQAPGKERELVATISWSGGSTYYADSVKGRFTISRDNAKNTVYLQMNSLKPEDTAVYYCAAKTILWKYYPYYYVTYDYWGQGTQVTVSS,high polyreactivity
12,QVQLVESGGGLVQAGGRLRLSCAASGRTFGTYAKGWSRQATGKERELVAAIRSNAGSTYYADSVKGRFTISRDNAKITVYLQMNSLKPEDTAVYYCAKSYRSSRRYNYWGQGTQVNVSS,high polyreactivity
13,QVQLVESGGGLVQAGGSLRLTCAASGSTFRYYVMGWYRQAPGKERELVAGISYRGGTTYYADSVKGRFTISRDNAKNTVYLQMNSLKPEDTAVYYCNAETAAAQASYDRLYVLLDYWGQGTQVTVSS,low polyreactivity
14,QLQLVESGGGLVQAGGSLRLSCAASGRIFVLYTMGRNRQATGKERELVAAISNVGSTNYADSVKGRFTISRDNAKYTVYLQMNSLIPEDTAVYYCNDRRRYGWHLYYYWGQGTQVTVSS,high polyreactivity
15,QVQLVESGRGLVQAGGSLRLSCAASGFTFYRYAMGWYRQAPGKERELVAAISWSGGSTYYADSVKGRFTISRDNAKNTVYLQMNSLKPEDTAVYYCAANRRFVGTGSTYYYWGQGTHVTVSS,high polyreactivity
16,QVQLQETGGGLVQVGGSQRLSCAASGNIFYNYAMGWYRHAQGKEREFDATINHGTSINDADSVKGRFTISRDNAKNTVYLQMNSLTPEDTAVYYCAADLSWTDNLFYWGQGTQETVSS,low polyreactivity
17,QVQLVESGGGLVQAGGSLRLSCAASGSIFTQYAMGWYRQAPGKERELVARITGSGGRTYYADSVKGRFTISRDNAKNTVYLQMNSLKPEDTAVYYCAARDVRPYYVKPPVRYYYWGQGTQVTVSS,high polyreactivity
18,QVQLVESGGGLVQAGGSLRLSCAASGLTFRRYAMGWYRQAPGKDRELVAAISRGDNTNYADSVKGRFTISRDNAKNTVYLQMTSLKPEDTAVYFCAPRLWIRGNFNYWGQATQVTVSS,high polyreactivity
19,QVQLEESGGGLVQAGGSLRLSCAASGFICKRYARGWYRQAPGKERELVAAITTSGGRTYYADSVKGRFTISRDNAKNTVYLQMNSLIPEDTAVYYCAAAQPGTNAYRVGSWGQGTQVTVSS,high polyreactivity
20,QVQLVESGGGLVQAGGSLRLSCAASGRTFVSNDMGWYRQAPGKERELVATISSGASTYYADSVKGRFTISRDNAKNTVYLQMNSLKPEDTAVYYCAAEVLVFGGGYDYWGQGTQVTVSS,low polyreactivity
21,QVQLVESGGGLVQAGGSLRLSCAASGRTFGYYAMGWYRQAPGNERELVASISQSGGRTYYADSVKGRFTISRDNAKNTVYLQMNSLKPVDTAVYLCNAVYYRRTGYEYWGQGSQVTVSS,high polyreactivity
